Data taken from the supplement of paper PMC10567573.
± gives the standard deviation.

Assay: protein stability index of a GFP-peptide fusion (GPS, HEK-293T) (PSI 1-6); higher = more stable
[1] = treatment: DMSO, c terminus: a fixed tail appended
[2] = treatment: MLN4924 1 uM, 8 h, c terminus: a fixed tail appended
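Further: 24-mer peptide tiles fused after GFP, lentivirally expressed, FACS-sorted into six equal bins by GFP/DsRed ratio, decoded by Illumina sequencing, PSI is the read-weighted mean bin number.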

Sequence | protein stability index [1] | protein stability index [2] | protein stability index (treatment: DMSO, c terminus: native) | protein stability index (treatment: MLN4924 1 uM, 8 h, c terminus: native)
NRFEVTLEKSNKNFSKKIQQIHVV [VPS39] | 2.36 ± 0.4 | 2.42 ± 0.22 | – | –
NRRRFRVRQPILQYRWDMMHRLGE [BEX1] | 2.31 ± 0.15 | 2.17 ± 0.29 | – | –
NRVWSISQEPDPVQRLQAYTATEQ [TRIM14] | 4.09 ± 0.31 | 3.97 ± 0.31 | – | –
NSQALLLHSSILTCTLLLLYSLAP [MFSD9] | 3.23 ± 0.12 | 3.08 ± 0.52 | – | –
NTHAKSILNSMNSLRKSNTLCDVT [KLHL12] | 2.82 ± 0.4 | 3.27 ± 0.43 | – | –
NTTVIPNGSMAMGTVPGQAPRLAV [LYSMD4] | 3.69 ± 0.32 | 3.5 ± 0.23 | – | –
NVISELNIEDYFSHHLAVYNSPQF [FBXO39] | 2.31 ± 0.29 | 2.32 ± 0.34 | – | –
NVPNPRIKLIDFGIAHKIEAGNEF [DAPK3] | 3.2 ± 0.087 | 3.1 ± 0.35 | – | –
NYEKEEEFLTNELSRKLMQLQHEK [CCDC6] | 4.43 ± 0.15 | 4.55 ± 0.38 | – | –
PAARRCHSCVQIKNDVFICGGYNG [KLHDC10] | 2.29 ± 0.42 | 2.43 ± 0.2 | – | –
PAATFGADDLVLTLSNPQMSLEGT [ELF3] | 4.24 ± 0.3 | 4.32 ± 0.23 | – | –
PAFKSMEVANFYYEADCLAAAYGG [CEBPB] | 2.83 ± 0.25 | 2.96 ± 0.13 | – | –
PAMQRYVKRLHEVGRTEPELLVAH [HMOX1] | 3.1 ± 0.29 | 3.37 ± 0.29 | – | –
PAMSPYWRTWMTITQSWQVSVRVQ [C22orf15] | 2.51 ± 0.41 | 2.74 ± 0.3 | – | –
PAPQVGTQIRTITEEIRDGKVISS [KRT36] | 5.08 ± 0.2 | 5.17 ± 0.23 | – | –
PASEKKPVPPSEGKSRLSPAGEMK [BCL2L13] | 5.28 ± 0.19 | 5.27 ± 0.084 | – | –
PAVPFAPHFLQGGPFPLPYTAPGG [TBX6] | 2.95 ± 0.097 | 3.03 ± 0.14 | – | –
PCIRNVTSPTRQHHVEREKDHSSS [BTBD10] | 5.23 ± 0.14 | 5.02 ± 0.42 | – | –
PDAWCDLSKFDLPEEPSAEDSINN [MYBL2] | 5.52 ± 0.12 | 5.42 ± 0.31 | – | –
PECRQVLKTSRKDVKDKETTENEN [CHGB] | 5.54 ± 0.3 | 5.45 ± 0.37 | – | –
PEEMATYLRYVRRLDFFEKPDYEY [CSNK1G1] | 2.34 ± 0.26 | 2.26 ± 0.55 | – | –
PEGVNKLKISPVTLKEAYVQKLVK [TENT5C] | 2.94 ± 0.35 | 2.93 ± 0.41 | – | –

Sequence | protein stability index [1] | protein stability index [2] | protein stability index (treatment: DMSO, c terminus: native) | protein stability index (treatment: MLN4924 1 uM, 8 h, c terminus: native)
PEIDMFLNVATFLDPRYKRLPFLS [ZBED1] | 2.42 ± 0.43 | 2.25 ± 0.48 | – | –
PENVEDSGLDSPSHAAPGPSPDSW [FCHO1] | 5.37 ± 0.13 | 5.46 ± 0.2 | – | –
PGAFIAGVPVQPVLIRYPNSLDTT [LPCAT4] | 2.72 ± 0.19 | 2.75 ± 0.36 | – | –
PGDCFLLLVLLLYAPVGFCLLVLR [AUP1] | 3.1 ± 0.44 | 3.13 ± 0.35 | – | –
PGDMKTKMELLILETQAQVCQALA [CPOX] | 2.31 ± 0.26 | 2.37 ± 0.34 | – | –
PGEGLLISWAFTDRPDLSLTVLPK [C2CD2L] | 2.64 ± 0.48 | 2.37 ± 0.44 | – | –
PGGPRNLKPTASKLGAPLSGLQGL [PDLIM4] | 3.54 ± 0.21 | 3.54 ± 0.053 | – | –
PGLPPVPGAPGMPPGIPPLMPGVP [ZNF207] | 4.41 ± 0.2 | 4.5 ± 0.24 | – | –
PHDFIEHFLSKMPEAEENKQIIRK [CCND1] | 3.96 ± 0.21 | 4.27 ± 0.22 | – | –
PIGELYGLSESSGPHTISNQNNYR [ACSBG2] | 3.91 ± 0.31 | 4.07 ± 0.57 | – | –
PIIVVPDPPSSSEECPAHLLEDPL [RHOBTB2] | 5.2 ± 0.1 | 4.81 ± 0.3 | – | –
PILQGQIDALLEFDVHPNELTNGV [SNAP91] | 3.42 ± 0.29 | 3.4 ± 0.45 | – | –
PISLQATPATPATLSASSSAGGSR [TFE3] | 4.51 ± 0.18 | 4.87 ± 0.11 | – | –
PKMRSKEQILELLVLEQFLTILPT [ZNF449] | 3.07 ± 0.96 | 3.36 ± 0.73 | – | –
PKRRMRYFDPLRNEYFFDRNRPSF [KCNA3] | 2.37 ± 0.26 | 2.6 ± 0.65 | – | –
PLEYQFKSQIMSLSHSPQEDWVLL [TLE6] | 2.26 ± 0.29 | 2.37 ± 0.4 | – | –
PLFNPMIYSLRNKEFKSALCKIVR [OR10K2] | 2.32 ± 0.071 | 1.9 ± 0.5 | – | –
PLGLEADMWSIGVITYILLSGASP [DAPK3] | 2.52 ± 1.4 | 2.27 ± 0.23 | – | –
PLLQSIHQLDFVQVKASSPVPATP [TRIM9] | 3.02 ± 0.18 | 3.2 ± 0.21 | – | –
PLPAGVPPLEDFEVLDGVEDAEGE [FKBP8] | 5.64 ± 0.26 | 5.44 ± 0.46 | – | –
PNFMKVIPAVSISYVVYENLKITL [SLC25A25] | 3.2 ± 0.4 | 3.46 ± 0.52 | – | –
PNINKISMQAVLDYLYTKQLSPNL [RHOBTB1] | 2.25 ± 0.68 | 2.16 ± 0.31 | – | –

Sequence | protein stability index [1] | protein stability index [2] | protein stability index (treatment: DMSO, c terminus: native) | protein stability index (treatment: MLN4924 1 uM, 8 h, c terminus: native)
PNVYPAAPQGGMAALNMSLGMVTP [ADD1] | 3.26 ± 0.28 | 3.25 ± 0.21 | – | –
PPASPPADGSPPLLPPGEPPLLGT [ANKRD40] | 5.17 ± 0.26 | 5.42 ± 0.14 | – | –
PPKAPPPVIKIPECPSMGTNEAAC [RHOBTB1] | 4.71 ± 0.23 | 4.86 ± 0.2 | – | –
PPMGKAFQELAGKELCAMSEEQFR [SPDEF] | 4.3 ± 0.25 | 4.4 ± 0.34 | – | –
PQQGFFSSFFTCNQKCQLRLLKTL [ATP23] | 2.36 ± 0.4 | 2.13 ± 0.3 | – | –
PQVRDWSHYFKIIEDLRAQIFANT [KRT18] | 2.52 ± 0.36 | 2.64 ± 0.46 | – | –
PQVSAHHRSQESLTSQESEDTYL [TBC1D10A] | – | – | 5.4 ± 0.18 | 5.51 ± 0.16
PRAVLKPRRVCVGGKRRRDDISVD [PPP2R2C] | 4.02 ± 0.18 | 4.25 ± 0.39 | – | –
PRHQGHRVQPVKDTAHDFRAKCRN [TRIM35] | 4.57 ± 0.15 | 4.65 ± 0.24 | – | –
PRICQRNLMSLLMAVRPSLPESGL [FANCE] | 2.4 ± 0.6 | 2.21 ± 0.27 | – | –
PRRSLSISKNKKKASNSIISCFNN [FAN1] | 2.79 ± 0.13 | 3.75 ± 0.29 | – | –
PSAPEALHSLPGVSLSLENRELWK [TBX6] | 3.94 ± 0.19 | 3.96 ± 0.33 | – | –
PSGFKHVSHVGWDPQNGFDVNNLD [WAS] | 3.83 ± 0.24 | 3.79 ± 0.58 | – | –
PSIMPQKHWVYVKRGGNCPAPAPL [ZBTB22] | 2.85 ± 0.19 | 2.81 ± 0.32 | – | –
PSPQLDTQQEIKLCQKSNDISIHH [WDR41] | 4.41 ± 0.51 | 4.49 ± 0.05 | – | –
PSTLLPTPEEQGELEPLKGNFDWE [FOXJ1] | 5.17 ± 0.068 | 5.16 ± 0.29 | – | –
PTPIFAGGANDRWVRSVSFSHDGL [WSB1] | 2.61 ± 0.19 | 2.99 ± 0.64 | – | –
PVDAEALELHDYHDIIKHPMDLST [BRD3] | 4.63 ± 0.34 | 4.67 ± 0.32 | – | –
PVIKIPECPSMGTNEAACLLDNPL [RHOBTB1] | 4.33 ± 0.16 | 4.41 ± 0.24 | – | –
PVKPVTFSTGIKMGQHISLAPIHK [MNAT1] | 2.96 ± 0.34 | 2.96 ± 0.32 | – | –
PVLAVVFIICIVIAILLYKSKPDR [PTPRD] | 2.94 ± 1.7 | 2.87 ± 0.63 | – | –
